Measurements as given in article PMC4131482, “The significance of the F variant of alpha-1-antitrypsin and unique case report of a PiFF homozygote” (BMC Pulmonary Medicine, 2014).
One block for each molecule: values may come before it.

What was measured:
[1] = target: proteinase 3 (UniProt P24158); assay: time course of enzyme inhibition (residual activity, second order association rate constant); methylamine-treated serum A1AT and PR3, equimolar, 1 nM each, 23°C, plate wells of 150 uL; residual PR3 activity at 1-5 min with the FRET substrate Abz-VAD-norV-ADRQ-EDDnp
[2] = target: proteinase 3 (UniProt P24158); assay: time course of enzyme inhibition (residual activity, second order association rate constant); purified M or Z variant A1AT and PR3, equimolar, 1 nM each, 23°C, plate wells of 150 uL; residual PR3 activity at 1-5 min with the FRET substrate Abz-VAD-norV-ADRQ-EDDnp
[3] = target: T1, F variant alpha-1-antitrypsin (human (endogenous in serum), UniProt P01009 25-418, arginine at residue 223 by cysteine); assay: time course of enzyme inhibition (residual activity, second order association rate constant); methylamine-treated serum A1AT and PR3, equimolar, 1 nM each, 23°C, plate wells of 150 uL; residual PR3 activity at 1-5 min with the FRET substrate Abz-VAD-norV-ADRQ-EDDnp; settings: one partner purified
T1 construct: alpha-1-antitrypsin (A1AT), F variant, human serum; arginine at residue 223 replaced by cysteine; also called F variant A1AT; F A1AT; source: endogenous, serum of a PiFF homozygote, treated with methylamine
T1 sequence (P01009 other isoform, or with tags, fused parts or gaps with the stated changes): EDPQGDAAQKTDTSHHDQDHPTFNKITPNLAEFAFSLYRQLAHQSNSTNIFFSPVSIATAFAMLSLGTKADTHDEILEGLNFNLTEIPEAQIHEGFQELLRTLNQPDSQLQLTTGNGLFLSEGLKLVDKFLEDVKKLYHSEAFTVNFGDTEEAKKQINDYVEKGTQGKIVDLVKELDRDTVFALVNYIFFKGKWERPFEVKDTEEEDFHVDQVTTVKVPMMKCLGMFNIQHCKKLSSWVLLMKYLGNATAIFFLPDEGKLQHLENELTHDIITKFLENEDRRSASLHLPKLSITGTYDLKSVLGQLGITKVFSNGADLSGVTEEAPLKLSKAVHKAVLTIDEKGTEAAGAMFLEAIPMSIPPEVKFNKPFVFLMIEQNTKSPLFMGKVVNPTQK

[4] = target: T2, M variant alpha-1-antitrypsin (human (endogenous in serum), UniProt P01009 25-418); assay: as above; settings: one partner purified
T2 construct: alpha-1-antitrypsin (A1AT), normal M variant, human serum or bought pure protein; the assays tell them apart; also called M variant A1AT; pure M variant A1AT; source: endogenous, serum of healthy PiMM controls, treated with methylamine; also bought: Athens Research and Technology, pure
T2 sequence (P01009 25-418, change not shown): as the sequence (P01009 other isoform, or with tags, fused parts or gaps with the stated changes) above, with C223R counted along it

[5] = target: T2, M variant alpha-1-antitrypsin; assay: time course of enzyme inhibition (residual activity, second order association rate constant); purified M or Z variant A1AT and PR3, equimolar, 1 nM each, 23°C, plate wells of 150 uL; residual PR3 activity at 1-5 min with the FRET substrate Abz-VAD-norV-ADRQ-EDDnp; settings: both partners purified

kon [1]: 951000 M⁻¹ s⁻¹
Molecule: S variant alpha-1-antitrypsin (from UniProt P01009 25-418) (natural protein)

kon [2]: 1.03e+06 M⁻¹ s⁻¹
kon [1]: 1.1e+06 M⁻¹ s⁻¹
Molecule: Z variant alpha-1-antitrypsin (from UniProt P01009 25-418) (natural protein)

kon [3]: 1.06e+06 M⁻¹ s⁻¹
kon [4]: 924000 M⁻¹ s⁻¹
kon [5]: 983000 M⁻¹ s⁻¹
B1: proteinase 3 (enzyme, UniProt P24158 28-248, looked up)
chain: IVGGHEAQPHSRPYMASLQMRGNPGSHFCGGTLIHPSFVLTAAHCLRDIPQRLVNVVLGAHNVRTQEPTQQHFSVAQVFLNNYDAENKLNDVLLIQLSSPANLSASVATVQLPQQDQPVPHGTQCLAMGWGRVGAHDPPAQVLQELNVTVVTFFCRPHNICTFVPRRKAGICFGDSGGPLICDGIIQGIDSFVIWGCATRLFPDFFTRVALYVDWIRSTLR
notes: proteinase 3 (PR3), bought pure enzyme, active site titrated; also called PR3; pure PR3; source: bought: Merck, pure
